Assay results published in patent US20230303690A1 (published 2023).

T1: LAG3 Protein, Human, Recombinant (His Tag) (Sino Biological Catalog No. 16498-H08H) (human, UniProt P18627 23-450)
T1 construct: Bought protein; also called hLAG3-His; LAG3-His; not shown: His tag
T1 sequence (looked up): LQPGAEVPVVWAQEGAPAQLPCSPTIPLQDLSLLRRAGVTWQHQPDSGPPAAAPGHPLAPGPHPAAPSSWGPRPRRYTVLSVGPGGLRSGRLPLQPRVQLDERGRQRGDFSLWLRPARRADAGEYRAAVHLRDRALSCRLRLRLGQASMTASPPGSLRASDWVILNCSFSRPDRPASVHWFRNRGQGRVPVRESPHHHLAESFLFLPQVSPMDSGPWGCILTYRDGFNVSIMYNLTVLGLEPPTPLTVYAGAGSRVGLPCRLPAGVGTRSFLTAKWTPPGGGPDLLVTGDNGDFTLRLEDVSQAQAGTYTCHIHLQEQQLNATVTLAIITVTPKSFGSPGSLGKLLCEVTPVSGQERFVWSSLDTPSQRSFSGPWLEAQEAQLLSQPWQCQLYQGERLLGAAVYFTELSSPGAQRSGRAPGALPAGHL

T2: human LAG3 expressed on cells (human, UniProt P18627 23-525)
T2 sequence (looked up): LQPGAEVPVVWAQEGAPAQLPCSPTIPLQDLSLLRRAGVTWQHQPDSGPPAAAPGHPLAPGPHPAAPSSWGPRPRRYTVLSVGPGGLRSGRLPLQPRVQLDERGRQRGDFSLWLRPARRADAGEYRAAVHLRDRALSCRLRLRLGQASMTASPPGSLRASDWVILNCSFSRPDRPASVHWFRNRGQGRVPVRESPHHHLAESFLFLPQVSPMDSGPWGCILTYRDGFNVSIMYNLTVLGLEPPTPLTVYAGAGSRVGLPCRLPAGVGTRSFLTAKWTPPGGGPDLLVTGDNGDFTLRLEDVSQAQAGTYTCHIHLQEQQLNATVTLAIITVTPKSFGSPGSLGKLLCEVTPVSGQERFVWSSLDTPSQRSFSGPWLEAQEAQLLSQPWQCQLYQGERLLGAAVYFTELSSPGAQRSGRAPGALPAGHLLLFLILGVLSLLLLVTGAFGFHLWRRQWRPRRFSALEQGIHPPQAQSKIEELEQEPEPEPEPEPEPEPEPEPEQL

B1: sdAb No. 25 (VHH)
VHH: QLQLVESGGGLVQAGGSLRLSCAASGSIESFSFMGWYRQAPGKQRELVAGFTGAASLSFSTYTDAVKGRFTISRDNAKNTVYLQMNSLKPEDTAVYFCNVDPWSQSWPGRYWGQGTQVTVSS
notes: Fc of the tested form not described; also called sdAb 25; sdAb #25; not shown: Fc part implied by anti-human Fc capture and anti-human IgG Fc detection
B2: sdAb No. 27 (VHH)
VHH: QVQLVESGGGLVQPGGSLRLSCAASGFTLDYYAIGWFRQAPGKEREGVSCIRSSDGSTYYADSVKGRFTISSDNTKNTVYLQMNSLKPEDTAVYYCATDRYSDCRGPYENWGQGTQVTVSS
notes: Fc of the tested form not described; also called sdAb 27; not shown: Fc part implied by anti-human Fc capture and anti-human IgG Fc detection
B3: sdAb No. 17 (VHH)
VHH: QLQLVESGGGLVQPGGSLRLSCAASGLTLDGYAIGWFRQAPGKEREGLACISGSDGSTHYLDSVKGRFTISRDNGKNTMALQMNSLQFGDTAIYYCAARRGSCSGSWTYWGQGTQVTVSS
notes: Fc of the tested form not described; also called sdAb 17; not shown: Fc part implied by anti-human Fc capture and anti-human IgG1 Fc detection

Columns and labels:
[1] = biological target: T1, LAG3 Protein, Human, Recombinant (His …); experiment: SPR binning on LAG3-His; competitor 20
Experimental: (§1) The chip surface was regenerated after each cycle with 25 mM NaOH followed by HBS-EP wash provided in the kit.

[2] = biological target: T1, LAG3 Protein, Human, Recombinant (His …); experiment: SPR binning on LAG3-His; competitor 18
Experimental: as §1

[3] = biological target: T1, LAG3 Protein, Human, Recombinant (His …); experiment: SPR binning on LAG3-His; competitor 73
Experimental: as §1

[4] = biological target: T2, human LAG3 expressed on cells; experiment: cell-based or functional assay
[5] = biological target: T1, LAG3 Protein, Human, Recombinant (His …); experiment: SPR binning on LAG3-His; competitor 1
Experimental: as §1

[6] = biological target: T1, LAG3 Protein, Human, Recombinant (His …); experiment: SPR binning on LAG3-His; competitor 17
Experimental: as §1

[7] = biological target: T1, LAG3 Protein, Human, Recombinant (His …); experiment: SPR binning on LAG3-His; competitor 24
Experimental: as §1

[8] = biological target: T1, LAG3 Protein, Human, Recombinant (His …); experiment: SPR (Biacore), sdAb captured by anti-human Fc, LAG3-His analyte
Experimental: The binding of the single domain antibodies to recombinant human LAG3 protein (rhLAG3) was examined by Biacore™ assay. […] The coating was carried out according to the manufacturer’s instructions accompanying the kit (Catalog No. BR-1008-39, GE). […] The chip surface was regenerated after each cycle with 25 mM NaOH followed by HBS-EP wash provided in the kit.

[9] = biological target: T2, human LAG3 expressed on cells; experiment: cell-based or functional assay; remark: listed apart in the source
[10] = biological target: T1, LAG3 Protein, Human, Recombinant (His …); experiment: SPR binning on LAG3-His; competitor BMS
Experimental: as §1

[11] = biological target: T1, LAG3 Protein, Human, Recombinant (His …); experiment: SPR binning on LAG3-His; competitor 21
Experimental: as §1

[12] = biological target: T1, LAG3 Protein, Human, Recombinant (His …); experiment: SPR binning on LAG3-His; competitor 37
Experimental: as §1

[13] = biological target: T1, LAG3 Protein, Human, Recombinant (His …); experiment: SPR binning on LAG3-His; competitor 27
Experimental: as §1

[14] = biological target: T1, LAG3 Protein, Human, Recombinant (His …); experiment: SPR binning on LAG3-His; competitor 25
Experimental: as §1

Binder | RU [1] [RU] | RU [2] [RU] | RU [3] [RU] | IL-2, % of BMS, at 0.005080526 ug/mL [4] [%] | IL-2, % of BMS, at 0.015241579 ug/mL [4] [%] | IL-2, % of BMS, at 0.045724737 ug/mL [4] [%] | IL-2, % of BMS, at 0.137174211 ug/mL [4] [%] | IL-2, % of BMS, at 0.411522634 ug/mL [4] [%] | IL-2, % of BMS, at 1.234567901 ug/mL [4] [%] | IL-2, % of BMS, at 3.703703704 ug/mL [4] [%] | IL-2, % of BMS, at 11.11111111 ug/mL [4] [%] | IL-2, % of BMS, at 33.33333333 ug/mL [4] [%] | IL-2, % of BMS, at 100 ug/mL [4] [%] | RU [5] [RU] | RU [6] [RU] | RU [7] [RU] | koff [8] [s⁻¹] | kon [8] [M⁻¹ s⁻¹] | EC50 for IL-2 rescue, hLAG3 Jurkat T system [9] [nM] | Efficacy (IL-2 production, BMS = 100%) [9] [%] | further results
B1 | 44.6 | 39 | 47.6 | 3.24 | -0.59 | 8.03 | 2.39 | 9.2 | 25.1 | 30.6 | 34.1 | 39.8 | 53.7 | 44.7 | 41 | 46.4 | 0.000108 | 6.31e+06 | 8.12 | 43.4 | Kd [8]: 0.017 nM; RU [10]: 31.7 RU; RU [11]: 49.3 RU; RU [12]: 44.1 RU; RU [13]: 50.9 RU; RU [14]: 7.2 RU
B2 | -11.7 | -9.6 | -15.1 | 5.57 | 13.4 | 12.1 | 18 | 27.3 | 36.5 | 43.4 | 50 | 52.9 | 52.8 | -9.1 | -11.7 | -10.1 | 4.09e-07 | 1.17e+07 | 8.49 | 50.2 | RU [10]: 48.2 RU; RU [11]: -10.1 RU; RU [12]: -9.1 RU; RU [13]: -6.2 RU; RU [14]: 34 RU
B3 | -14.6 | -7.5 | -17 | 5.97 | 9.56 | 9.97 | 18 | 22.3 | 26.5 | 31.4 | 38 | 38 | 42.2 | -13.6 | -2 | -10.4 | 0.0012 | 6.6e+06 | 7.72 | 46.5 | Kd [8]: 0.181 nM; RU [10]: 15.2 RU; RU [11]: -12.5 RU; RU [12]: -13.4 RU; RU [13]: -7 RU; RU [14]: 17.9 RU
